# Experimental data as given in patent publication US20210077563A1 (VIB VZW, published 2021).
# Biological target: the molecule itself
# Experiment: ESI-IMS-MS of colpeptin1 in 100 mM ammonium acetate buffer (self-association)
protein,measurement,value
RGLGLALVRRPRGLGLALVRR [Colpeptin1 (P2)],binding result,binds
